{"source": "IntAct's records for PubMed 22056771", "parents": {"B1": {"name": "Autophagy-related protein 8 (Saccharomyces cerevisiae), P38182 (parent)", "chain": "MKSTFKSEYPFEKRKAESERIADRFKNRIPVICEKAEKSDIPEIDKRKYLVPADLTVGQFVYVIRKRIMLPPEKAIFIFVNDTLPPTAALMSAIYQEHKDKDGFLYVTYSGENTFGR", "partner": "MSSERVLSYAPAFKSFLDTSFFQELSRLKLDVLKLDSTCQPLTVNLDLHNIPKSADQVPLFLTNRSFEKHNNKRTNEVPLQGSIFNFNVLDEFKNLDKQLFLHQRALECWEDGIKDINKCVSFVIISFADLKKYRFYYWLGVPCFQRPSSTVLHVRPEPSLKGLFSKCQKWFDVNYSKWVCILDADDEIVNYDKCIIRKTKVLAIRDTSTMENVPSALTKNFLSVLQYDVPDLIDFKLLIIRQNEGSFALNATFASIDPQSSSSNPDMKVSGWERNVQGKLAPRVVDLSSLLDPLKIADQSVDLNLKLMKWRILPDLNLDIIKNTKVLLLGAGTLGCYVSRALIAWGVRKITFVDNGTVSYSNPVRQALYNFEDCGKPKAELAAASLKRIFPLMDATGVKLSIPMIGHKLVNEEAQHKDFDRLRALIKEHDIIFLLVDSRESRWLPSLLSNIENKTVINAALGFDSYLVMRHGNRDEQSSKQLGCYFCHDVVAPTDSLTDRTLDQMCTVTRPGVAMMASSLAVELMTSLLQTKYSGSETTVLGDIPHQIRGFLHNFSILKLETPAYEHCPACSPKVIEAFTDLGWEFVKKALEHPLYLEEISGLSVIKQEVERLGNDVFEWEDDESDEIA"}, "B2": {"name": "Ubiquitin-like modifier-activating enzyme ATG7 (Saccharomyces cerevisiae), P38862 (parent)", "chain": "B1 partner", "partner": "B1 chain"}, "B3": {"name": "Autophagy-related protein 8 (Saccharomyces cerevisiae), P38182 (parent)", "chain": "B1 chain", "partner": "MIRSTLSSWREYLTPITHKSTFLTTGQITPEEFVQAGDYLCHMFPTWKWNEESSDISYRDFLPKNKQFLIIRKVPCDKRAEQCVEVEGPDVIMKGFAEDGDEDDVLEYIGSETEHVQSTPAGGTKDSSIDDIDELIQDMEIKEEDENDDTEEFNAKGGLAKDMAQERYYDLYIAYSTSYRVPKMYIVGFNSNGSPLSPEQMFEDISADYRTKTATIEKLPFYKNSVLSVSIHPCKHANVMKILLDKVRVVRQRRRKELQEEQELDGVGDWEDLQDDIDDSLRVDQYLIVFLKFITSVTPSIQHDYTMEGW"}}}
{"variants_of": "B1", "details": "with atg7_yeast ATG7, P38862"}
{"variant": "Y62A", "effect of a mutation on the interaction": "disrupting interaction strength"}
{"variant": "Y62K", "effect of a mutation on the interaction": "disrupting interaction strength"}
{"variant": "Y62A;K66A", "effect of a mutation on the interaction": "disrupting interaction"}
{"variant": "K66E", "effect of a mutation on the interaction": "decreasing interaction strength"}
{"variant": "K66A", "effect of a mutation on the interaction": "decreasing interaction strength"}
{"variants_of": "B1", "details": "with atg7_yeast ATG7, P38862", "remark": "another data set of the same source"}
{"variant": "Y62K", "effect of a mutation on the interaction": "disrupting interaction"}
{"variants_of": "B2", "details": "with atg8_yeast ATG8, P38182"}
{"variant": "E612A", "effect of a mutation on the interaction": "decreasing interaction strength"}
{"variant": "E612R", "effect of a mutation on the interaction": "decreasing interaction strength"}
{"variant": "E612Q", "effect of a mutation on the interaction": "decreasing interaction strength"}
{"variants_of": "B3", "details": "with atg3_yeast ATG3, P40344"}
{"variant": "Y62K", "effect of a mutation on the interaction": "disrupting interaction"}
